{"source": "paper PMC10825162", "about": "(Nature Communications, 2024)", "biological_target": "SARS-CoV-2 spike (reference strain) expressed on CHO-K1 cells (SARS-CoV-2 reference strain (Wuhan-Hu-1), UniProt P0DTC2)", "experiment": "flow cytometry on cells", "conditions": "one partner purified"}
{"binder": "BA7208 (antibody, V domains shown) VH: EVQLVQSGAEVKKPGESLKISCKGSGYSFTSYYWIGWVRQMPGKGLEWMGIVYPDDSDTRYSPSFQGQVTISADKSISTAYLQWSSLKASDTAMYYCVRHPGGGDWYFDLWGRGTLVTVSS VL: DIQMTQSPSTLSASVGDRVTITCRASQSISSWLAWYQQKPGKAPKLLIYKASSLESGVPSRFSGSGSGTEFTLTITSLQPDDFATYYCQQYDSFSWTFGQGTKLEIK", "values": [{"measurement": "binding result", "value": "binds"}]}
